Experiment [1] addresses T1, human Tie1, full length, V5-tagged (pcDNA3-Tie1-V5), in transiently transfected COS1 cells (human, UniProt P35590 25-1138).
T1 construct: it is not expressly tied to the pcDNA3-Tie1-V5 construct; also called Tie1-transfected; transfected Tie1
In words: Western blot, Tie1-V5-transfected COS1. As to the method:
COS1 cells were transfected with pcDNA3-Tie1-V5 (1 μg DNA per 10 cm cell culture plate) using FUGENE 6 (Roche) according to manufacturer's instruction and incubated for 48 h before stimulation. For immunoprecipitation, Tie1 transfected cells and HMVEC cells were lysed in DOC-RIPA lysis buffer (50 mM Tris-HCl pH 8.0, 150 mM NaCl, 1% Triton-X-100, 0.1% SDS, 1% DOC, 10 mM EDTA) supplemented with aprotinin, leupeptin, PMSF and sodium vanadate. Immunoprecipitation was carried out from equal amount of cell lysates by incubating with polyclonal anti-human Tie1 antibodies (R&D), monoclonal anti-V5 antibodies (Invitrogen) or altogether 23 anti-Tie1 antibodies (1μg/ml) for 1 to 2 h followed by incubation with protein G-Sepharose (Amersham Pharmacia Biotech AB) for 1 h. The immunoprecipitates were washed twice with PBS-T and twice with PBS, followed by elution with the Laemmli buffer and separation in 8% SDS-PAGE. The blots were probed with the 23 anti-Tie1 antibodies (5 μg/ml) and subsequently anti-human Fc antibodies conjugated with HRP.
Next, to find out if the anti-Tie1 antibodies recognize Tie1 in living cells, those cells were studied by immunofluorescence staining.

Experiment [2] has as its target T2, endogenous human Tie1 of primary human endothelial cells (HDMEC/HDMVEC, HUVEC) and human tissues (human, UniProt P35590 25-1138).
T2 construct: also called endogenous Tie1; Tie-1 in HUVEC
The experiment is described as follows: immunofluorescence, HDMEC.

Experiment [3] deals with T3, recombinant human Tie1-Fc (Tie1 extracellular domain fused to human Fc) (human, UniProt P35590 25-759).
T3 construct: also called Tie-1 Fc Human; not shown: human Fc
T3 sequence: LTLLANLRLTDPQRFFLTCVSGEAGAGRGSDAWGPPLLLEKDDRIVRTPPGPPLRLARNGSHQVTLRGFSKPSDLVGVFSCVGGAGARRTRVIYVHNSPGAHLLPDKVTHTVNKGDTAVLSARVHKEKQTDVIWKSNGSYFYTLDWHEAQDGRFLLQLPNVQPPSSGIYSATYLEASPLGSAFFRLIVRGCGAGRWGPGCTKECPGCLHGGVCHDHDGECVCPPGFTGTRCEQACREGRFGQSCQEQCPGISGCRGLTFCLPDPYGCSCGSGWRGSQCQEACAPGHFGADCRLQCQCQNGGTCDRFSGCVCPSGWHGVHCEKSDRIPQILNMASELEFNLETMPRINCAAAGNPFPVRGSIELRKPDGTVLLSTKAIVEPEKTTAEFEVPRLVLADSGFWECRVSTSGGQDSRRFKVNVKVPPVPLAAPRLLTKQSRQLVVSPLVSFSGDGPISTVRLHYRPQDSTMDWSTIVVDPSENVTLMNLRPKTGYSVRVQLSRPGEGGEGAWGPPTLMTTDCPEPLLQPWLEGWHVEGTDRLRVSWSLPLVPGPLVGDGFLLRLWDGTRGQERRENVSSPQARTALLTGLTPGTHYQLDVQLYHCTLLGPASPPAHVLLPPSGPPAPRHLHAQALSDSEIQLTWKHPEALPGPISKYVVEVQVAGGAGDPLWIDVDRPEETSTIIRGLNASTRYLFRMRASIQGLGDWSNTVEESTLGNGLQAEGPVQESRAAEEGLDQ
The experiment is described as follows: BIAcore, human Tie-1 Fc over IgG coupled to CM5 chip, 1:1 fit. The procedure: The IgG were directly coated onto a CM5 chip. […] All flow cells were subsequently deactivated with a 7 minute pulse of 1M ethanolamine hydrochloride pH 8.5. All analysis was performed in HBS buffer. Purified recombinant human Tie-1 Fc was diluted 1/28.7 in HBS to obtain a 400 nM stock solution. Serial dilutions were made to obtain 200 nM, 100 nM, 50 nM and 25 nM Tie-1 Fc stocks. For analysis of the association phase samples were injected at 30 μl/min for 8.3 minutes using kinject program. This was followed by a 40 minutes dissociation phase. Any antigen remaining associated to the surface was stripped from the IgG surface at a flow of 50μl/min with two injections of 10 mM glycine pH 1.5 for 30 secods. All samples were run and analyzed in duplicate
(§1) Sensorgrams were analyzed using the simultaneous ka/kd fitting program with 1:1 model in the BIAEVALUATION™ software 3.1.

Experiment [4] concerns the target T4, recombinant mouse Tie1-Fc (mouse, UniProt Q06806 23-755, limits assumed).
T4 construct: also called Tie-1 Fc Mouse; not shown: Fc
T4 sequence (looked up): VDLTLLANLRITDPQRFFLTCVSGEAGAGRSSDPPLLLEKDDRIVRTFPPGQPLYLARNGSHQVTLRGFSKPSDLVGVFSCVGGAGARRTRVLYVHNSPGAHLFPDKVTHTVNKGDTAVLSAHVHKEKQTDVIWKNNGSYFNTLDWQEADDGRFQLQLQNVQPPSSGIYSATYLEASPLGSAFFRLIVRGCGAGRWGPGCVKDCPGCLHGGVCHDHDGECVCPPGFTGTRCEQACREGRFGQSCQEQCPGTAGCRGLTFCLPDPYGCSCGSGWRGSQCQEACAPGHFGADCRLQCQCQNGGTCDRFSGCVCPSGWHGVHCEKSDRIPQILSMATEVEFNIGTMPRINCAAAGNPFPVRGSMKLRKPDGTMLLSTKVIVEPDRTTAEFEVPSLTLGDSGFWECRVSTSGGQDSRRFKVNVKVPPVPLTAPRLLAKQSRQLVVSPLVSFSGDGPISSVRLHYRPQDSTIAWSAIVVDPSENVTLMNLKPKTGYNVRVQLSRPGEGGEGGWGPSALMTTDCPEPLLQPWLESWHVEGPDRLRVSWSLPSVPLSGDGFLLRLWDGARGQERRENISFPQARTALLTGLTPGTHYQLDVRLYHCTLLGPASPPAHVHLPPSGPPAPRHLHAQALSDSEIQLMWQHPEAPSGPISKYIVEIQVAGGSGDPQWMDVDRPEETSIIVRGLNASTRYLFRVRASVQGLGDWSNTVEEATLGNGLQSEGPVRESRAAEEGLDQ
The experiment is described as follows: BIAcore, mouse Tie-1 Fc over IgG coupled to CM5 chip, 1:1 fit. As to the method:
This was then used to transiently transfect HEK293T cells using established procedures. The IgG was purified from the culture supernatant using protein A column chromatography using established procedures and the subsequent IgG was then tested for binding activity using surface plasmon resonance (BIAcore). […] The IgG were directly coated via onto a CM5 chip. […] All flow cells were subsequently deactivated with a 7 minute pulse of 1M ethanolamine hydrochloride pH8.5. All analysis was performed in HBS buffer. Purified recombinant mouse Tie-1 Fc was diluted 1/6.5 in HBS to obtain a 400 nM stock solution. Serial dilutions were made to obtain 200 nM, 100 nM, 50 nM and 25 nM Tie-1 Fc stocks. For analysis of the association phase samples were injected at 30 μl/min for 8.3 minutes using kinject program. This was followed by a 40 minutes dissociation phase. Any antigen remaining associated to the surface was stripped from the IgG surface at a flow of 50μl/min with two injections of 10 mM glycine pH1.5 for 30 seconds. All samples were run and analyzed in duplicate
as §1
(In SPR one partner is held on a chip, and binding of the other changes the refractive index at the surface.)

Experiment [5] addresses T2, endogenous human Tie1 of primary human …. The experiment is described as follows: cell-based or functional assay.

“And” between values parts separate entries of the source, which are not always exact repeats. Equal values may be shown once.

B1: P-B3 IgG (anti-Tie1 isolate p-B3, human IgG1) (antibody, V domains shown)
VH: EVQLLESGGGLVQPGGSLRLSCAASGFTFSRYGMHWVRQAPGKGLEWVSVISPSGGMTYYADSVKGRFTISRDNTKNTLYLQMNSLRAEDTAVYYCARVGATGPFDIWGQGTMVTVSS
VL: DIQMTQSPATLSLSPGERATLSCRASQSVSTYLAWYQQKPGQAPRLLIYDASNRATGIPGRFSGSGSGTDFTLTISSLEAEDFAVYYCQQRSSWPITFGQG
notes: the VL entry stops within FR4
With B1, the binding result in experiment [1] and in experiment [2] was “binds” throughout.

B2: E3 IgG (parental anti-Tie1 antibody E3, human IgG1) (antibody, V domains shown)
VH: EVQLLESGGGLVQPGGSLRLSCAASGFTFSMYGMVWVRQAPGKGLEWVSVISPSGGNTGYADSVKGRFTISRDNSKNTLYLQVNSLRAEDTAVYYCARAPRGYSYGYYYWGQGTLVTVSS
VL: DIQMTQSPLSLSASVGDRVTITCRASQGIGHYLAWYQQKPGKVPKLLIYTASTLQSGVPSRFSGSGSGTDFTLTINSLQPEDVATYYCQQFNSYPHTFGQGTRLDIK
notes: also called E3 IgG1; parental E3
By Kd is commonly meant the constant that tells how readily two partners part at equilibrium. For orientation: koff means the first-order rate constant of dissociation. A word on the kon: it is a measure of how fast the partners come together. In the case of B2, in experiment [3], the dissociation constant Kd is 5.83 nM, the koff came to 3.61e-05 s⁻¹ and the kon turned out to be 6190 M⁻¹ s⁻¹. In experiment [4], the dissociation constant Kd stood at 14.9 nM, the koff came to 9.2e-05 s⁻¹ and the kon is 6170 M⁻¹ s⁻¹. Besides, in experiment [5], the “IC50 of tube formation by HUVECs” value was 10 ng/ml and 66 pM.

B3: germlined E3 IgG (light chain framework regions germlined to DPK4; heavy chain as parental) (antibody, V domains shown)
VH: EVQLLESGGGLVQPGGSLRLSCAASGFTFSMYGMVWVRQAPGKGLEWVSVISPSGGNTGYADSVKGRFTISRDNSKNTLYLQVNSLRAEDTAVYYCARAPRGYSYGYYYWGQGTLVTVSS
VL: DIQMTQSPSSLSASVGDRVTITCRASQGIGHYLAWYQQKPGKVPKLLIYTASTLQSGVPSRFSGSGSGTDFTLTISSLQPEDVATYYCQQFNSYPHTFGQGTRLEIK
notes: also called germlined E3 IgG1; germlined anti Tie1 E3-IgG
Consider B3, for which, in experiment [3], the equilibrium dissociation constant (Kd) is 5.17 nM, the off-rate constant (koff) was 3.67e-05 s⁻¹ and the on-rate (kon) came to 7090 M⁻¹ s⁻¹. For the same molecule, in experiment [4], the Kd came out at 15 nM, the dissociation rate constant (koff) is 8.99e-05 s⁻¹ and the kon turned out to be 6000 M⁻¹ s⁻¹. Also, the “IC50 of tube formation by HUVECs” value in experiment [5] was 10 ng/ml and 66 pM.

Values taken from patent US20060024297A1 (published 2006).
